This note sets out measurements from publication PMC8163826.

Where two headings read alike, the source gives them in different places.

Assay [1] deals with RSV CA protein (Rous sarcoma virus). Kind of assay: cryo-EM structure; single-particle cryo-EM of T = 1 and T = 3 icosahedral CLPs; 500 µM CA assembled in 1 M NaPO4 at pH 8, diluted 1:4.
Assay [2] shares this target. The assay is described as above. The source holds these as a separate data set.
Assay [3] concerns the target RSV CASPNC (Rous sarcoma virus). Nature of the assay: cryo-EM structure; cryo-electron tomography and subtomogram averaging of CASPNC CLPs (regular tubes and polyhedrons) assembled in the presence of 100 µM IP6.
The target is the same in assay [4]. The description is as above. This is another data set of the same source.

With RSV CA protein (natural protein), the stoichiometry N turned out to be 6 in assay [1] and 5 in assay [2].

In the case of RSV CASPNC (domain or fragment), the stoichiometry N in assay [3] was 6; in assay [4], 5.

The stoichiometry N is a count of units in the complex or per binding partner.
